One substance from IntAct's records for PubMed 25843002 can be followed below.

The assay has as its target tr10b_human TNFRSF10B (UniProt O14763).

Regarding “Ras-related C3 botulinum toxin substrate 1 (Homo sapiens) (from UniProt P63000) T17N”, the “effect of a mutation on the interaction” value is “decreasing interaction strength”.
